{
  "source": "patent EP4714975A1",
  "about": "(Nanjing Leads Biolabs Co., Ltd., dated 2026)",
  "binders": {"B1": {"name": "h193 (a fully human monoclonal antibody against LILRB4) (antibody, human IgG1, kappa, V domains shown)", "VH": "EVQLVESGGGLVQPGGSLRLSCAASGFSLSSSYWISWVRQAPGKGLEWIGSIDSGSVGITYYATWVKGRFTISRDNSKNTLYLQMNSLRAEDTAVYYCARHGDNWALDLWGQGTLVTVSS", "VL": "DLVMTQSPSTLSASVGDRVTITCQASQSINSWLAWYQQKPGKPPKLLIYKASTLASGVSSRFSGSGSGTEFTLTISSLQPDDVATYYCQHGYIRGDLDNVFGGGTKVEIKR", "notes": "Control antibody; also called antibody h193; control antibody h193"}, "B2": {"name": "humanized anti-LILRB4 antibody huB1G5-1 (antibody, V domains shown)", "VH": "EVQLVESGGGLVQPGGSLRLSCAASESIFSSNVMGWYRQAPGKQRELVAAVGINGLTKIGDSVKGRFTISRDNAKNSVYLQMNSLRAEDTAVYYCAAGAYVRFLQNSPDYWGQGTQVTVSS", "notes": "Humanized VHH-Fc heavy-chain antibody without light chain; also called Humanized anti-LILRB4 VHH huB1G5-1-Fc"}, "B3": {"name": "humanized anti-LILRB4 antibody huB1G5-3 (antibody, V domains shown)", "VH": "B2 VH with N54Q, N106Q", "notes": "Humanized VHH-Fc heavy-chain antibody without light chain; also called Humanized anti-LILRB4 VHH huB1G5-3-Fc"}, "B4": {"name": "anti-LILRB4xCD3 bispecific antibody huB1G5-CD3Fab (bispecific antibody, human IgG1, lambda, L234A L235A)", "heavy 1": "not shown", "light": "QAVVTQEPSLTVSPGGTVTLTCRSSTGAVTTSNYANWVQQKPGQAPRGLIGGTNKRAPGVPARFSGSLLGGKAALTLSGAQPEDEAEYFCALWYSNLWVFGGGTKLTVLGQPKAAPSVTLFPPSSEELQANKATLVCLISDFYPGAVTVAWKADSSPVKAGVETTTPSKQSNNKYAASSYLSLTPEQWKSHRSYSCQVTHEGSTVEKTVAPTEC", "heavy 2": "EVQLVESGGGLVQPGGSLRLSCAASESIFSSNVMGWYRQAPGKQRELVAAVGIQGLTKIGDSVKGRFTISRDNAKNSVYLQMNSLRAEDTAVYYCAAGAYVRFLQQSPDYWGQGTQVTVSSEPKSSDKTHTCPPCPAPEAAGGPSVFLFPPKPKDTLMISRTPEVTCVVVAVSHEDPEVKFNWYVDGVEVHNAKTKPREEQYNSTYRVVSVLTVLHQDWLNGKEYKCKVSNKALAAPIEKTISKAKGQPREPQVCTLPPSRDELTKNQVSLSCAVKGFYPSDIAVEWESNGQPENNYKTTPPVLDSDGSFFLVSKLTVDKSRWQQGNVFSCSVMHEALHNHYTQKSLSLSPGK", "notes": "HC1: CD3Fab heavy chain-knob; LC1: CD3Fab light chain; HC2: huB1G5-hole (VHH huB1G5-3 and Fc hole); One anti-LILRB4 VHH, one anti-CD3 Fab, knob-in-hole Fc"}, "B5": {"name": "anti-LILRB4xCD3 bispecific antibody huB1G5-CD3-2VHH (bispecific antibody, human IgG1, lambda, L234A L235A)", "heavy 1": "not shown", "light": "B4 light", "heavy 2": "B4 heavy 2", "notes": "HC1: huB1G5-CD3Fab heavy chain-knob (VHH, GGGGS, hu34H1-VH, CH1, Fc knob); LC1: CD3Fab light chain; HC2: huB1G5-hole; Two anti-LILRB4 VHHs, one anti-CD3 Fab"}, "B6": {"name": "anti-LILRB4xCD3 bispecific antibody huB1G5-ScFv-2VHH (bispecific antibody)", "heavy 1": "not shown", "heavy 2": "B4 heavy 2", "notes": "HC1: huB1G5-Hu34ScFv-knob (VHH, GGGGS, 23L2 ScFv, Fc knob); HC2: huB1G5-hole"}, "B7": {"name": "anti-LILRB4 chimeric antibody 2A3 (antibody, human IgG1, V domains shown)", "VH": "EVQVVESGGGSVQTGGSLTLSCAASGRTFRSNGMGWFRQAPGKEREFVAAIRWSGRRTTYTDSVKGRFTISSDSAKNTVYLQMSSLKPEDTAVYYCAVDLLPPYGALDKYDYWGQGTQVTVSS", "notes": "also called Camelid-derived anti-LILRB4 VHH 2A3-Fc"}, "B8": {"name": "anti-LILRB4 chimeric antibody B1A2 (antibody, human IgG1, V domains shown)", "VH": "QVQLVESGGGLVQPGGSLRLSCAASGFTFSSYTMSWVRQAPGKGLEWISDINNDGGKTYYAFSVEGRFTISRDNAKNTLYLQMNSLKPEDTAVYYCVRDHQYTSRNGDRGQGTQVTVSS", "notes": "also called Camelid-derived anti-LILRB4 VHH B1A2-Fc"}, "B9": {"name": "anti-LILRB4 chimeric antibody 1H12 (antibody, human IgG1, V domains shown)", "VH": "EVQVVESGGGLVQAGGSLRLSCAASETIFSSNVMGWYRQAHGKQRELVAATGINGVTKYADSVKGRFTISRDNAKNTVYLQMNSLNVEDTAVYYCAAGVWRNFVMRSPDYWGQGTQVTVSS", "notes": "also called Camelid-derived anti-LILRB4 VHH 1H12-Fc"}, "B10": {"name": "anti-LILRB4 chimeric antibody B1G5 (antibody, human IgG1, V domains shown)", "VH": "B2 VH with P14A, A40S, K43H, S77T, R86K, A87V", "notes": "also called Camelid-derived anti-LILRB4 VHH B1G5-Fc"}},
  "note": "Substitutions are numbered along the chain they refer to.",
  "data": [
    {"biological_target": "T1, human LILRB4 endogenously expressed on tumor cells (MV-4-11, HL-60) (human, UniProt Q8NHJ6 22-448)", "T1 construct": "whole, on cells; also called tumor cells (MV-411) expressing human LILRB4; HL-60 cells that endogenously express human LILRB4", "test": "flow cytometry on MV-4-11 cells", "values": [
      {"binder": "B1", "binding result": "binds"},
      {"binder": "B2", "binding result": "binds"},
      {"binder": "B3", "binding result": "binds"}
    ]},
    {"biological_target": "human CD3 protein (Sino Biological, Cat. No.: CT038-H2508H) (human, UniProt P07766 23-126)", "sequence (P07766 23-126)": "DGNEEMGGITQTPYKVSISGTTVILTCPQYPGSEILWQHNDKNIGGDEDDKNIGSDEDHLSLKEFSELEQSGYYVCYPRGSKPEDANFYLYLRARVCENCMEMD", "test": "BLI (ForteBio Octet RED96e), antibody captured on AHC sensor, antigen in solution, 1:1 model", "units": {"Kd": "nM", "koff": "s⁻¹", "kon": "M⁻¹ s⁻¹"}, "values": [
      {"binder": "B4", "Kd": 26.3, "koff": 0.00803, "kon": 305000},
      {"binder": "B5", "Kd": 22.6, "koff": 0.00549, "kon": 242000},
      {"binder": "B6", "Kd": 35.7, "koff": 0.0112, "kon": 313000}
    ]},
    {"biological_target": "T2, cynomolgus monkey LILRB4 protein (ACRO Biosystems, Cat. No.: CDK-C5227) (cynomolgus monkey)", "T2 construct": "Bought reagent", "test": "BLI (ForteBio Octet RED96e), antibody captured on AHC sensor, antigen in solution, 1:1 model", "units": {"Kd": "nM", "koff": "s⁻¹", "kon": "M⁻¹ s⁻¹"}, "values": [
      {"binder": "B4", "Kd": 11, "koff": 0.00351, "kon": 320000},
      {"binder": "B5", "Kd": 10.6, "koff": 0.0023, "kon": 218000},
      {"binder": "B6", "Kd": 15.3, "koff": 0.00365, "kon": 238000}
    ]},
    {"biological_target": "T3, cynomolgus monkey CD3 protein (ACRO Biosystems, Cat. No.: CDD-C52W4) (cynomolgus monkey, UniProt Q95LI5 22-117)", "T3 sequence (looked up)": "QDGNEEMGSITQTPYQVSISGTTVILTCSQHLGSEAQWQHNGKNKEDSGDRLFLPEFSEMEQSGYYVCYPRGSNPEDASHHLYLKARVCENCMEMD", "test": "BLI (ForteBio Octet RED96e), antibody captured on AHC sensor, antigen in solution, 1:1 model", "units": {"Kd": "nM", "koff": "s⁻¹", "kon": "M⁻¹ s⁻¹"}, "values": [
      {"binder": "B4", "Kd": 6.59, "koff": 0.0021, "kon": 318000},
      {"binder": "B5", "Kd": 6.92, "koff": 0.00191, "kon": 276000},
      {"binder": "B6", "Kd": 28.2, "koff": 0.00801, "kon": 284000}
    ]},
    {"biological_target": "T4, human LILRB4 expressed on CHO-K1 cells (CHO-K1-huLILRB4) (human, UniProt Q8NHJ6 22-280)", "T4 construct": "also called engineered cells expressing human LILRB4", "test": "flow cytometry on CHO-K1-huLILRB4 cells", "values": [
      {"binder": "B7", "binding result": "binds"},
      {"binder": "B8", "binding result": "binds"},
      {"binder": "B9", "binding result": "binds"},
      {"binder": "B1", "binding result": "binds"},
      {"binder": "B10", "binding result": "binds"}
    ]}
  ]
}
